One assay concerns the target hMPV B2 F GCN4. The assay is described as follows: ELISA. A general note: In an ELISA, binding on a coated surface is turned into a signal by an enzyme label.
Assay [1] deals with hMPV F protein of subgroup B1 (ELISA panel) (human metapneumovirus (subgroup B1)). Description: ELISA.
Assay [2] concerns the target hMPV F protein of subgroup A2 (ELISA panel) (human metapneumovirus (subgroup A2)). The assay is described as follows: ELISA.
In assay [3] the target is post-fusion trimeric hMPV B2 F (trypsin treated) (human metapneumovirus (subgroup B2)). The assay is described as follows: ELISA.
Assay [4] has as its target monomeric hMPV B2 F protein, treated with trypsin (human metapneumovirus (subgroup B2)). Description: ELISA.
In assay [5] the target is hMPV F protein of subgroup A1 (ELISA panel) (human metapneumovirus (subgroup A1)). The assay is described as follows: ELISA.
The target in assay [6] is recombinant hMPV B2 F protein (human metapneumovirus (subgroup B2)). Description: ELISA.
The target in assay [7] is biotinylated monomeric hMPV B2 F protein (human metapneumovirus (subgroup B2), biotin (site not stated)). The assay is described as follows: BLI. (BLI is a label-free optical method that tracks binding on a fibre tip over time.)

B1: MPV458 human monoclonal antibody (antibody, V domains shown)
VH: QGKLVESGGGVIQPGRSLRLSCAASGFDFSRYGLHWVRQAPGKGLEWVAVIVYAGSNKYYADSVKGRFTISKDNSKNTMHLQMSDLRTEDTAVYYCARDQAFDLWGQGTMVTVSS
VL: DIQMTQSPASLSASVGDRVTITCQASQGISRSVNWYQQKPGKAPKLLIFDASHLERGVPSRFSGSGYGTDFTFTISSLQPEDIATYYCQQYDNLRISFGQGTRLEIK
For orientation: EC50 means the concentration at which the effect is half-maximal. B1: the EC50 with hMPV B2 F GCN4 came out at 0.2 µg/mL; in assay [1], 0.39 µg/mL; in assay [2] it was 0.39 µg/mL; in assay [3], 0.13 µg/mL; in assay [4], 0.027 µg/mL; in assay [5], 0.33 µg/mL. Moreover, the EC50 in assay [6] is 0.12 µg/mL.

B2: MPV458 Fab (Fab, V domains shown)
VH: QGKLVESGGGVIQPGRSLRLSCAASGFDFSRYGLHWVRQAPGKGLEWVAVIVYAGSNKYYADSVKGRFTISKDNSKNTMHLQMSDLRTEDTAVYYCARDQAFDLWGQGTMVTVSS
VL: DIQMTQSPASLSASVGDRVTITCQASQGISRSVNWYQQKPGKAPKLLIFDASHLERGVPSRFSGSGYGTDFTFTISSLQPEDIATYYCQQYDNLRISFGQGTRLEIK
As a reminder, the koff is the first-order rate constant of dissociation. A higher koff goes with a short-lived complex. For B2, the koff in assay [7] was found to be 8.4e-05 s⁻¹.

B3: MPE8 monoclonal antibody (recombinant, human IgG1) (antibody, V domains shown)
VH: EVQLVESGGGLVKPGGSLRLSCAASGFTFSSYSMNWVRQAPGKGLEWVSSISSSSSYIYYADSVKGRFTISRDNAKNSLYLQMNSLRAEDTAVYYCARARATGYNSITPYFDIWGQGTLVTVSS
VL: QSVVTQTPSVSGAPGQRVTISCTGSSSNIGAGYDVHWYQQLPGTAPKLLIYDNNNRPSGVPDRFSASKSGTSASLAITGLQAEDEADYYCQSYDRSLSGVFGTGTKVTVL
On to B3, for which the EC50 with hMPV B2 F GCN4 turned out to be 4.7 µg/mL; in assay [1], 3.1 µg/mL; in assay [2], 4.3 µg/mL; in assay [3], 1.3 µg/mL; in assay [4], 0.63 µg/mL; in assay [5], 1.3 µg/mL. Moreover, the concentration for a half-maximal effect (EC50) in assay [6] came to 2 µg/mL.

The values are drawn from article PMC7598476 (2020).
